B1: N-CAP1, N-terminal fragment of human cyclase-associated protein 1 (original coiled coil and helical folded domain) (domain or fragment, UniProt Q01518 1-220, looked up)
chain: MADMQNLVERLERAVGRLEAVSHTSDMHRGYADSPSKAGAAPYVQAFDSLLAGPVAEYLKISKEIGGDVQKHAEMVHTGLKLERALLVTASQCQQPAENKLSDLLAPISEQIKEVITFREKNRGSKLFNHLSAVSESIQALGWVAMAPKPGPYVKEMNDAAMFYTNRVLKEYKDVDKKHVDWVKAYLSIWTELQAYIKEFHTTGLAWSKTGPVAKELSGL
notes: cyclase-associated protein 1 (CAP1), human; N-terminal coiled coil (a.a. 1-29) followed by the helical folded domain (HFD); Cloned in pET21b; also called CAP1 tetramer; not shown: 6xHis, C-terminal, kept
B2: N-CAP2, N-terminal fragment of human cyclase-associated protein 2 (original coiled coil and helical folded domain) (domain or fragment, UniProt P40123 1-220, looked up)
chain: MANMQGLVERLERAVSRLESLSAESHRPPGNCGEVNGVIAGVAPSVEAFDKLMDSMVAEFLKNSRILAGDVETHAEMVHSAFQAQRAFLLMASQYQQPHENDVAALLKPISEKIQEIQTFRERNRGSNMFNHLSAVSESIPALGWIAVSPKPGPYVKEMNDAATFYTNRVLKDYKHSDLRHVDWVKSYLNIWSELQAYIKEHHTTGLTWSKTGPVASTVS
notes: cyclase-associated protein 2 (CAP2), human; N-terminal coiled coil (a.a. 1-29) followed by the helical folded domain (HFD); Cloned in pET21b; 30-220, so this construct probably ends at 220 (surmised); also called CAP2 tetramer; not shown: 6xHis, C-terminal, kept

What was measured:
[1] = molecular target: F-actin (skeletal muscle actin, polymerised) ( (rabbit or chicken skeletal …, UniProt P68135 1-377)); experiment: cell-based or functional assay
[2] = molecular target: the molecule itself; experiment: AUC; sedimentation velocity (SV-AUC), 50 µM protein, 20 °C, 50,000 rpm, absorbance at 280 nm, 20 mM Tris-HCl pH 8.0, SEDFIT c(S) model; buffer (Tris-HCl vs PBS) and salt did not affect the oligomerization state

| Binder | potentiation of F-actin severing by 50 nM CFL1 with 750 nM N-CAP construct, single filaments by TIRF microscopy, against CFL1 alone [1] | stoichiometry N [2] |
| --- | --- | --- |
| B1 | > 2.5 fold | 4 |
| B2 | – | 4 |
